One data set has as its target T1, PTP10D (Drosophila melanogaster, UniProt P35992).
T1 sequence (P35992 1226-1533): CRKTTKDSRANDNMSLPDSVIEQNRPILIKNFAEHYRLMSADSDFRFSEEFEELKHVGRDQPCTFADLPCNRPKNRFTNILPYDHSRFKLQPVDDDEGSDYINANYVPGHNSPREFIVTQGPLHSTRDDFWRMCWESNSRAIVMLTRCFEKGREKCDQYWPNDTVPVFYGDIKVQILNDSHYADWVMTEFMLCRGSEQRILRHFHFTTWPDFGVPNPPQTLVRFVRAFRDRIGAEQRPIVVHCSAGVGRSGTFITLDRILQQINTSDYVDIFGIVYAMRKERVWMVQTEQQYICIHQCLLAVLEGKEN
Briefly: crystal structure. The class given is biochemical.

Substrate in the data set “purified protein”: O=[N+]([O-])c1ccc(OP(=O)(O)O)cc1
In words: purified protein.

A word on the Ki: it is the equilibrium dissociation constant of an inhibitor or competing ligand from its target. Turning to `[O]=[V]([OH])([OH])[OH]` [sodium vanadate], the inhibition constant Ki on PTP10D stood at 1530 ± 140 nM.

B1: PTP10D (Drosophila melanogaster) (protein)
chain: T1 sequence (P35992 1226-1533)
Broadly, the Km is the concentration of substrate that gives half-maximal velocity. For orientation: Vmax means the rate approached at saturating substrate. Broadly, the kcat is the maximal rate divided by the concentration of active sites. For orientation: kcat/Km means the turnover number divided by the Michaelis constant. For B1, in the data set “purified protein”, the Km was 5.3128 ± 0.05842 mM, the Vmax worked out at 13.7 µmol/min/mg, the catalytic constant (kcat) was 8.24 ± 0.89 s⁻¹ and the kcat/Km was 1550 ± 160 M⁻¹ s⁻¹.
